Experimental data taken from US7390645B2, “Lactose repressor proteins with increased operator DNA binding affinity” (William Marsh Rice University, priority 1997, dated 2008).
“Also recorded” adds a separate entry of the source. Like-named read-outs stand apart in the source and are kept apart here.

Experiments:
[1] = molecular target: O^1 operator sequences (lac operator DNA); assay: lac operator DNA binding of lac repressor proteins characterized in vitro; design: species or system E. coli; settings: for affinity for lac operator DNA (in words): relative to wild-type lac repressor unless stated
Source text: The term “affinity”, as used in conjunction with the lac operator or an inducer ligand, is defined as 1/Kd, where Kd is the concentration of DNA or ligand required to occupy 50% of the available binding sites.
(§1) To test an altered lac repressor protein, the coding sequence for the altered lac repressor protein can be cloned into an expression vector. The expression vector can then be placed into bacterial or eukaryotic cells containing a reporter gene under lac operator control to test for an active repressor protein. For example, a reporter containing E. coli β-galactosidase (encoded by lacZ) has been constructed by excising the lacZ gene under control of the lac operator from the plasmid pCR2.1 (Invitrogen) and inserting it into plasmid pACYC184 (New England Biolabs). This new composite reporter plasmid is named pZCam and can be co-transformed or electroporated into bacteria with the plasmids containing the coding sequences of altered lac repressor proteins. Host cells for these plasmids should have neither lactose repressor nor β-galactosidase proteins (i.e., the cells are lacI^− lacZ^−). Next, these bacteria are plated in the presence of either methyl umbelliferyl-β-D-galactoside (MUG) or 5-bromo-4-chloro-3-indolyl-β,D-galactoside (X-gal) as indicators to determine whether an active repressor protein is present (white colonies). In the presence of an inducer sugar, colonies containing inducer-responsive repressor protein will be fluorescent (MUG) or blue (X-gal). Alternatively, the coding sequence can be cloned into any expression vector known in the art and transformed into E. coli that are lacI^−, preferably ΔlacI, and lacpOz^+. The lacpOz region can be on a different, but compatible, plasmid or in the bacterial genome. Colonies containing active repressor protein will be white in the absence of an inducer and fluorescent (MUG) or blue (X-gal) in the presence of an inducer. Specific amino acid changes that result in increased operator binding affinity or enhanced ligand responsivity can be determined. LacI derivatives with appropriate properties are then isolated and characterized in vitro for their (a) O^1 operator DNA binding properties in the absence and presence of the appropriate inducer ligand and (b) inducer ligand binding properties in the absence and presence of operator DNA. Purified proteins can be obtained by standard protein purification methods known to those of skill in the art.

[2] = responsivity of lac repressor proteins to inducer ligand; format: biochemical, E. coli; settings: relative to wild-type lac repressor
Source text: as §1
Mutants can be screened by phenotypic analysis as described above. In the preferred forms, the plasmid containing the gene for altered lac repressor protein is either co-transformed with the reporter plasmid pZCam or is transformed into E. coli that are ΔlacI and lacpOz^+. Introduction of wild-type lac repressor protein into bacteria containing pZCam or into the ΔlacI/lacpOz^+ bacteria results in white colonies in the presence of MUG or X-gal. In contrast, in the presence of IPTG or the alternative ligand, the colonies are fluorescent (MUG) or blue (X-gal). […]

[3] = system: O^1 operator sequences (lac operator DNA); settings: relative to wild-type lac repressor; cited from earlier work
[4] = reduced form; cited from earlier work
[5] = read-out: Kd for O^1 operator sequences

B1: Gln60Gly: altered lac repressor protein with glycine substituted for glutamine at amino acid number 60; SEQ ID NO:2 (protein, listed as Escherichia coli)
chain: MKPVTLYDVAEYAGVSYQTVSRVVNQASHVSAKTREKVEAAMAELNYIPNRVAQQLAGKGSLLIGVATSSLALHAPSQIVAAIKSRADQLGASVVVSMVERSGVEACKAAVHNLLAQRVSGLIINYPLDDQDAIAVEAACTNVPALFLDVSDQTPINSIIFSHEDGTRLGVEHLVALGHQQIALLAGPLSSVSARLRLAGWHKYLTRNQIQPIAEREGDWSAMSGFQQTMQMLNEGIVPTAMLVANDQMALGAMRAITESGLRVGADISVVGYDDTEDSSCYIPPLTTIKQDFRLLGQTSVDRLLQLSQGQAVKGNQLLPVSLVKRKTTLAPNTQTASPRALADSLMQLARQVSRLESGQ
With B1 as the molecule, how does the Kd ([1]; presence of 1 mM IPTG, read-out: Kd for O^1 operator sequences in the presence of 1 mM IPTG) read?
The Kd was greater than 100 nM.

And the Kd [1, 5]?
The Kd was 0.004 nM.

What about the “affinity for lac operator DNA (in words)” value [1] of the same molecule?
The value was “increased affinity for operator sequences”.

What about the “responsivity to inducer (in words)” value [2] of the same molecule?
Its value is “close to normal responsivity to inducer”.

B2: Gln55Glu: Gln55Glu mutant of the lac repressor (protein)
chain: MKPVTLYDVAEYAGVSYQTVSRVVNQASHVSAKTREKVEAAMAELNYIPNRVAQELAGKQSLLIGVATSSLALHAPSQIVAAIKSRADQLGASVVVSMVERSGVEACKAAVHNLLAQRVSGLIINYPLDDQDAIAVEAACTNVPALFLDVSDQTPINSIIFSHEDGTRLGVEHLVALGHQQIALLAGPLSSVSARLRLAGWHKYLTRNQIQPIAEREGDWSAMSGFQQTMQMLNEGIVPTAMLVANDQMALGAMRAITESGLRVGADISVVGYDDTEDSSCYIPPLTTIKQDFRLLGQTSVDRLLQLSQGQAVKGNQLLPVSLVKRKTTLAPNTQTASPRALADSLMQLARQVSRLESGQ
Which “affinity for lac operator DNA (in words), from cited work” value [3] does the source give for B2 here?
Its value is “decreased affinity for lac operator DNA”.

B3: Gln60Gly/Leu148Phe (protein)
chain: MKPVTLYDVAEYAGVSYQTVSRVVNQASHVSAKTREKVEAAMAELNYIPNRVAQQLAGKGSLLIGVATSSLALHAPSQIVAAIKSRADQLGASVVVSMVERSGVEACKAAVHNLLAQRVSGLIINYPLDDQDAIAVEAACTNVPALFFDVSDQTPINSIIFSHEDGTRLGVEHLVALGHQQIALLAGPLSSVSARLRLAGWHKYLTRNQIQPIAEREGDWSAMSGFQQTMQMLNEGIVPTAMLVANDQMALGAMRAITESGLRVGADISVVGYDDTEDSSCYIPPLTTIKQDFRLLGQTSVDRLLQLSQGQAVKGNQLLPVSLVKRKTTLAPNTQTASPRALADSLMQLARQVSRLESGQ
With B3 as the molecule, how does the “affinity for lac operator DNA (in words)” value [1] read?
The value was “increased affinity for operator sequence compared to Leu148Phe (affinity comparable to wild-type lac repressor)”.

What about the “responsivity to inducer (in words)” value [2] of the same molecule?
Its value is “enhanced inducer responsivity comparable to Leu148Phe”.

B4: Pro320Ala: lac repressor protein Pro320Ala identified by random mutagenesis and phenotypic screening (protein)
chain: MKPVTLYDVAEYAGVSYQTVSRVVNQASHVSAKTREKVEAAMAELNYIPNRVAQQLAGKQSLLIGVATSSLALHAPSQIVAAIKSRADQLGASVVVSMVERSGVEACKAAVHNLLAQRVSGLIINYPLDDQDAIAVEAACTNVPALFLDVSDQTPINSIIFSHEDGTRLGVEHLVALGHQQIALLAGPLSSVSARLRLAGWHKYLTRNQIQPIAEREGDWSAMSGFQQTMQMLNEGIVPTAMLVANDQMALGAMRAITESGLRVGADISVVGYDDTEDSSCYIPPLTTIKQDFRLLGQTSVDRLLQLSQGQAVKGNQLLAVSLVKRKTTLAPNTQTASPRALADSLMQLARQVSRLESGQ
With B4 as the molecule, how does the “operator DNA affinity relative to wild-type lac repressor” value ([1]; higher affinity than wild-type) read?
The value was 10 fold.

And the “affinity for lac operator DNA (in words)” value [1]?
The value was “increased DNA affinity”.

And the “responsivity to inducer (in words)” value [2]?
Its value is “normal inducer responsivity; also recorded: wild-type inducer responsivity”.

B5: Val52Cys: mutation of lac repressor amino acid 52 from Val to Cys (protein)
chain: MKPVTLYDVAEYAGVSYQTVSRVVNQASHVSAKTREKVEAAMAELNYIPNRCAQQLAGKQSLLIGVATSSLALHAPSQIVAAIKSRADQLGASVVVSMVERSGVEACKAAVHNLLAQRVSGLIINYPLDDQDAIAVEAACTNVPALFLDVSDQTPINSIIFSHEDGTRLGVEHLVALGHQQIALLAGPLSSVSARLRLAGWHKYLTRNQIQPIAEREGDWSAMSGFQQTMQMLNEGIVPTAMLVANDQMALGAMRAITESGLRVGADISVVGYDDTEDSSCYIPPLTTIKQDFRLLGQTSVDRLLQLSQGQAVKGNQLLPVSLVKRKTTLAPNTQTASPRALADSLMQLARQVSRLESGQ
What does the source list for B5?
affinity for lac operator DNA (in words), from cited work [3]: increased affinity for the lac operator DNA; response to inducer (in words), from cited work [4]: normal response to inducer in reduced form

B6: wild-type LacI: naturally occurring E. coli lac repressor protein (LacI); SEQ ID NO:1 (protein, listed as Escherichia coli)
chain: MKPVTLYDVAEYAGVSYQTVSRVVNQASHVSAKTREKVEAAMAELNYIPNRVAQQLAGKQSLLIGVATSSLALHAPSQIVAAIKSRADQLGASVVVSMVERSGVEACKAAVHNLLAQRVSGLIINYPLDDQDAIAVEAACTNVPALFLDVSDQTPINSIIFSHEDGTRLGVEHLVALGHQQIALLAGPLSSVSARLRLAGWHKYLTRNQIQPIAEREGDWSAMSGFQQTMQMLNEGIVPTAMLVANDQMALGAMRAITESGLRVGADISVVGYDDTEDSSCYIPPLTTIKQDFRLLGQTSVDRLLQLSQGQAVKGNQLLPVSLVKRKTTLAPNTQTASPRALADSLMQLARQVSRLESGQ
Which Kd [1, 5] does the source give for B6 here?
The Kd was 0.012 nM.

B7: Leu148Phe (protein)
chain: MKPVTLYDVAEYAGVSYQTVSRVVNQASHVSAKTREKVEAAMAELNYIPNRVAQQLAGKQSLLIGVATSSLALHAPSQIVAAIKSRADQLGASVVVSMVERSGVEACKAAVHNLLAQRVSGLIINYPLDDQDAIAVEAACTNVPALFFDVSDQTPINSIIFSHEDGTRLGVEHLVALGHQQIALLAGPLSSVSARLRLAGWHKYLTRNQIQPIAEREGDWSAMSGFQQTMQMLNEGIVPTAMLVANDQMALGAMRAITESGLRVGADISVVGYDDTEDSSCYIPPLTTIKQDFRLLGQTSVDRLLQLSQGQAVKGNQLLPVSLVKRKTTLAPNTQTASPRALADSLMQLARQVSRLESGQ
For B7, which “affinity for lac operator DNA (in words)” value [1] is on record?
Its value is “slightly diminished DNA affinity; also recorded: diminished affinity for operator sequences”.

What about the “responsivity to inducer (in words)” value [2] of the same molecule?
The value was “enhanced responsivity to IPTG”.
